For assay [1], the target named is Purified human C1q (Sigma UK) (human) (UniProt P02745). Description: cell-based or functional assay.
Assay [2] has as its target FcγRIII on human peripheral blood mononuclear effector cells (human) (UniProt P08637). Description: cell-based or functional assay.
Assay [3] addresses guinea pig complement (serum). Description: cell-based or functional assay.
Assay [4] deals with FcγRI on IFNγ stimulated U937 cells (UniProt P12314). Description: 50% inhibition of binding of FITC-labelled mouse lgG2a antibody to U937 cells, FACS.
FcγRI on IFNγ stimulated U937 cells, sequence (P12314 16-374 limits assumed): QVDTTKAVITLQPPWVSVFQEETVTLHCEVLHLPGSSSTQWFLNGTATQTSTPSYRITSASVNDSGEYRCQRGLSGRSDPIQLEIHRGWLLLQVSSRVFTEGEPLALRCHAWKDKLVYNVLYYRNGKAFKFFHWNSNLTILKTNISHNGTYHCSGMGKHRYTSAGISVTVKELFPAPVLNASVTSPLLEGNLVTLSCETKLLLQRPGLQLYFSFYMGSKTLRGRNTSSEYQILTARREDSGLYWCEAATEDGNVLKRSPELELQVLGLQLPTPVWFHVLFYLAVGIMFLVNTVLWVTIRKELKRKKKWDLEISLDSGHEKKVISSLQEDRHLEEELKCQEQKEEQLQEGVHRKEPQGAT

FcγRIII on human peripheral blood mononuclear effector cells (human), sequence (P08637 17-254): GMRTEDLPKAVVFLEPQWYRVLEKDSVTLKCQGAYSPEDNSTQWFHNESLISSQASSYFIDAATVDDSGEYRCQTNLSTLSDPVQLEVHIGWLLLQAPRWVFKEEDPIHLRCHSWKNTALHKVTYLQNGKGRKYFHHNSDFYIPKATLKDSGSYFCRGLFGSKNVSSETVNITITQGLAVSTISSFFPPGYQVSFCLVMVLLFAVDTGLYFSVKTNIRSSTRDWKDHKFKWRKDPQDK
Purified human C1q (Sigma UK) (human), sequence (P02745 23-245 limits assumed, chain 1 of 3): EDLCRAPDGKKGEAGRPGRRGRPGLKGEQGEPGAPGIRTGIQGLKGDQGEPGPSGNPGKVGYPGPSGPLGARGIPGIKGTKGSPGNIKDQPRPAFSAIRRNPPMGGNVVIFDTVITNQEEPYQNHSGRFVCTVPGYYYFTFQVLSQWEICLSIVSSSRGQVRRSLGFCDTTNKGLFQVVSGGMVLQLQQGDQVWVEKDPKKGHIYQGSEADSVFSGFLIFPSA
Purified human C1q (Sigma UK) (human), sequence (P02746 28-253 limits assumed, chain 2 of 3, further chain): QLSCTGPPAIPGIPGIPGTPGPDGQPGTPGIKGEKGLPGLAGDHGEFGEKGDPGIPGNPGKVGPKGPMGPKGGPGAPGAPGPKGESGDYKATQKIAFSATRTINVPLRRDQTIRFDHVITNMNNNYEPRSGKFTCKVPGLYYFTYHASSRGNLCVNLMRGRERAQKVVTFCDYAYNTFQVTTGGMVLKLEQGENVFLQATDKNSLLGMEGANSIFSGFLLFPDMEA
Purified human C1q (Sigma UK) (human), sequence (P02747 29-245 limits assumed, chain 3 of 3, further chain): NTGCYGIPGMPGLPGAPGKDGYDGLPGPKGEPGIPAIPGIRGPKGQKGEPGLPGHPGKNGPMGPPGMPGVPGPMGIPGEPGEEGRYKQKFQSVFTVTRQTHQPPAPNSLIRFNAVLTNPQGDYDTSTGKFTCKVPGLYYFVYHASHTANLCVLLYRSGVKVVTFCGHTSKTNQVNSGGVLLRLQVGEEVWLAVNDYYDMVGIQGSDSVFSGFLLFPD

Turning to “chimeric L243 G1[G237A] (from UniProt P01857 1-330; P01834 1-107) (antibody)”, in assay [1], the mg/ml antibody necessary for half maximal cell killing by human complement turned out to be 2 mg/mL and the percent plateau cell killing by human complement was 20%.
“chimeric L243 G1[K320A] (from UniProt P01857 1-330; P01834 1-107) (antibody)”: in assay [1], the mg/ml antibody necessary for half maximal cell killing by human complement came out at 0.6 mg/mL and the percent plateau cell killing by human complement turned out to be 70%. The substance also returned a ng/ml antibody necessary for half maximal cell killing in ADCC in assay [2] of 10 ng/mL.
In assay [1], “chimeric L243 G1[L235A] (from UniProt P01857 1-330; P01834 1-107) (antibody)” returned a mg/ml antibody necessary for half maximal cell killing by human complement above 20 mg/mL and a percent plateau cell killing by human complement of 0%. Further, the plateau level killing with guinea pig complement in assay [3] stood at 49%. Besides, in assay [2], the ng/ml antibody necessary for half maximal cell killing in ADCC was 9 ng/mL.
For the substance “chimeric L243 G1[L235E] (from UniProt P01857 1-330; P01834 1-107) (antibody)”, in assay [1], the mg/ml antibody necessary for half maximal cell killing by human complement was above 20 mg/mL and the percent plateau cell killing by human complement worked out at 0%. The substance further yielded a plateau level killing with guinea pig complement in assay [3] of 40%.
In assay [1], “chimeric L243 G4[L235E] (from UniProt P01861 1-327; P01834 1-107) (antibody)” displayed a mg/ml antibody necessary for half maximal cell killing by human complement above 20 mg/mL and a percent plateau cell killing by human complement of 0%. Moreover, the ng/ml antibody necessary for half maximal cell killing in ADCC in assay [2] is above 100000 ng/mL.
For orientation: IC50 means the midpoint of a concentration-inhibition curve. A low value points to inhibition by little substance. In turn, “chimeric L243 human lgG1 wild type (from UniProt P01857 1-330; P01834 1-107) (antibody)” came in with a half-maximal inhibitory concentration (IC50) in assay [4] of 130 µg/mL. Further, in assay [1], the maximum cell killing by human complement was found to be 64%, the mg/ml antibody necessary for half maximal cell killing by human complement amounted to 0.6 mg/mL and the percent plateau cell killing by human complement came out at 65%. In assay [3], the plateau level killing with guinea pig complement came out at 80%.
In the case of “chimeric L243 human lgG2 (from UniProt P01859 1-326; P01834 1-107) (antibody)”, in assay [1], the mg/ml antibody necessary for half maximal cell killing by human complement was above 20 mg/mL and the percent plateau cell killing by human complement worked out at 0%. The substance further returned a ng/ml antibody necessary for half maximal cell killing in ADCC in assay [2] above 100000 ng/mL.
On to “chimeric L243 human lgG4 (from UniProt P01861 1-327; P01834 1-107) (antibody)”, for which the 50% inhibitory concentration (IC50) in assay [4] is 1200 µg/mL. In assay [1], the mg/ml antibody necessary for half maximal cell killing by human complement is above 20 mg/mL and the percent plateau cell killing by human complement came to 0%. In assay [2], the maximum killing in ADCC came out at 20% and the ng/ml antibody necessary for half maximal cell killing in ADCC (extrapolated value) was 10000 ng/mL.

The values above are taken from patent WO1994029351A2.
